Source: a protein production outcome set (Wang et al. 2014)

Assay: label from the status in PepcDB records

MPIHIGSSIPLMVEKMLTEMVKPSKHIPQQTLNLSTLDNDPYNEVIYKACYVFKAKNVADDDNRPEALLREALSDLLGYYYPLSGSLKRQESDRKLQLSCGGDGGGVPFTVATANVELSSLKNLENIDSDTALNFLPVLHVDIDGYRPFALQVTKFECGGFILGMAMSHAMCDGYGEGHIMCALTDLAGGKKKPMVTPIWERERLVGKPEDDQPPFVPGDDTAASPYLPTDDWVTEKITIRADSIRRLKEATLKEYDFSNETITTFEVIGAYLWKSRVKALNLDRDGVTVLGLSVGIRNVVDPPLPDGYYGNAYIDMYVPLTAREVEEFTISDIVKLIKEAKRNAHDKDYLQEELANTEKIIKMNLTIKGKKDGLFCLTDWRNIGIFGSMDFGWDEPVNIVPVVPSETARTVNMFMRPSRLESDMVGGVQIVVTLPRIAMVKFKEEMEALE
protein production: failed

MILSQQKYNYLAKVSDSNGVISALAFDQRGALKCLMAQYQMKEPTVAQMEELKVLVSEELTPYASSILLDPEYGLPAAQARDREAGLLLAYEKTGYDANTTSRLPDCLVDWSIKRLKEAGADAVKFLLYYDVDGDPQVNVQKQAYIERIGSECQAEDIPFFLEILTYDETISNNSSVEFAKVKVHKVNDAMKVFSAERFGIDVLKVEVPVNMVYVEGFAEGEVVYSKEEAAQAFREQEASTDLPYIYLSAGVSAELFQETLVFAHKAGAKFNGVLCGRATWAGSVQVYMEEGKEAARQWLRTSGLQNINELNKVLKTTASPWTEKVSVG
protein production: not failed

MKTINVFHYDAFTNKPNMGNPAGIVLDADGLTEEEMQRIAEKVGFNETSFVLSSEVADIRMRYFTPGYEMDLCGHGTVGTIYALRERGLLEEKASLTIETKAGILPIQIGVNENGETFIKMRQTAPQFKDFAGSKEELAHSIGLEVNDLDVSLPIVYGSTGNWTVIVPVKNLDVCERMKPNNEVFPSVLKEIPNASIHPICLETYDEKVHMHGRHFSSAYAGTIEDPVTGTASGVMGAYYATYVEKDFDHEMELIVEQGQEIHKDGRVTVYVTKDVESEKLQIDIAGTAVYVKEFEVLI
protein production: failed

MGIDPVTHRATHKTKRVEATANTFKAVATEWLKEVHQKAVVEEHYNRNVRRLEQHAFPKLGRRPISEIEPSDILEPLRDIAKTGRRETAKRVKTLIGQVFRYTVSTGRAQRDMTADIRGILPALEHHHHHH
protein production: failed

DEKGNIVDGDQIMYICSKHLKSEGRLKDDTVVSTVMSNLGFYKALEKEGIKSVQTAVGDRYVVEAMKKDGYNVGGEQSGHLIFLDYNTTGDGLLSAIMLMNTLKATGKPLSELAAEMQKF
protein production: failed

MTITPQQLIALLPLLIVGLTVVVVMLSIAWRRNHFLNATLSVLGLNAALVSLWFVGQNGAMDVTPLIRVDGYAMLYTGLVLLASLATCTFAYPWLEGYKDNKEEFYLLVLIAALGGILLAGANHLAALFLGIELISLPLFGLVGYAFRQKRSLEASIKYTILSAAASSFLLFGMALVYANSGNLSFLALGKSLADNMLHEPLLLAGLGLMIVGLGFKLSLVPFHLWTPDVYQGAPAPVSTFLATASKIAIFGVVMRLFLYMPVGNSEAVRVVLGLIAFASIIFGNLMALSQTNIKRLLGYSSISHLGYLLVALIALQSGEMSMEAVGVYLAGYLFSSLGAFGVVSLMSSPYRGPDADSLFSYRGLFWHRPILSAVMTVMMLSLAGIPMTLGFIGKFYVLAVGVHAHLWWLVAAVVVGSAIGLYYYLRVAVSLYLSAPEQLNRDAPSNWQYSAGGIVVLISALLVLVLGIWPQPLISIVQLATPLM
protein production: failed

MKKKMITALGVSAIILTNFVGSTYADSKIGVSVTAPYNKNQIAEWLEMHAKPLKTTNPNAPFNDLKPFKNMVGSASIVGLGEATHGAHEVFTMKNRIVNYLVSEKGFTNLVLEEGWDRALELDRYVLTGEGNPSQHLSPVFKTKEMLDLLNWIRQYNANPKHKSKVRIIGMDIQSVNENVYNNIIEYVKRTNSKLVPRIEEKIKGLIPVTKDMNTFESLTKEEKEKYISDAKQISAVLEENKSYLNGKSKEFAWIKQNARIIEQFTTMLTSPPDKPSDLFLKHDIAMYENAKWTEEHLGKTIVWGHNGHVSKTNMLPFVYPKVAGQYLAEYYGKRYVSIGTSVYEGQYNVKNSDGEFGPYGILKSDDPNSYNYIFGQVKKDQFFIDLRKANGVTKNWLNEQHPIFAGVTTEGPGIPKTVDISLGKAFDILVQIQKVSPSQLHQLEHHHHHH
protein production: failed

MVTSTELTGQTAGVPDAGLVERALAYVREKADGEKPTTLPTGETVLSHAEGMLRILDGLRVDDAARAAACLFPMVAFVPGVEAHIEERFGEDVARLVKGVRQLLRIGAIATQAEAVETSKSQAAARQEQVEALRKMLLAFAQDIRVVLVRLASRLQTLRWLAQTKSQPLPGVARETLDIYAPLANRLGIWQMKWELEDLAFRFEQPETYKRIAKLLDEKRIEREGYISQAIARLQSELAAAGIRAEVTGRPKHIYSIWKKMRGKALDFADLYDVRAFRVIVDDIKDCYTVLGIVHHIWQPIPREFDDYISRPKANGYKSLHTVVIGDDGRAFEVQIRTHEMHHFAEYGVAAHWRYKEAGGKGYSGQFTADNSYDEKIAWLRQLLAWKDDADHTVTHEDSPWEQLKHAAIDDHIYVLTPQARVVALPQGATPVDFAYYLHSDLGHRCRGARVDGAMVPLNTPLKNGQTVEIVAVKQGGPSRDWLNPELGYLASSRARAKVRAWFNALDSQETIAQGRALIEKTLQREGKTAVNLDDLATRLNFKTPDDLFAAVAKEEFSLRHVEQALRHPDGEVQPQFSEEEAVTKKSRATSVARGAKSGVLVVGVDSLMTQMSRCCKPAPPDDIVGFVTRGRGVSIHRRNCHTFQQLSTRDPERVIQTEWGKRSDAVYPVDIQVEAIDRQGLLRDISEVLSREKINVTGVKTLSSKGVARMQFTAEVAEATQLQRAISLIEEVQGVLHAKRK
protein production: failed

MDSLTSLTSFVRTAETLSFVQAARLLGISASAVGKNVARLEHKLGVRLFNRSTRNVSLTAEGAAFLTRCQSILEQIQEAESELTSSLSQPTGKLRISLPVIGYRLLLPALTAFSRLYPQVELDLDFSDRLVNLIDEGVDVAIRSGELADSRLIARKLGGFRFVLCASPAYLAEYGAPDSPAELAAHKCIFFRFPATGLIQPWELRGMRLTGDFRSAAVMTVNNIEAAIRLSAAGMGIAYVPDFVVREAMDEGQLQEVLPGCCIKDGHFSVLWPASRYLSPRIRCFIDFMAAAEIPLSPASAPPPLVSNNLR
protein production: failed

MSSSQQIAKNARKAGNILKTISNEGRSDILYKIHDALKANAHAIEEANKIDLAVAKETGLADSLLKRLDLFKGDKFEVMLQGIKDVAELEDPVGKVKMARELDDGLTLYQVTAPVGVLLVIFESRPEVIANITALSIKSGNAAILKGGKESVNTFREMAKIVNDTIAQFQSETGVPVGSVQLIETRQDVSDLLDQDEYIDLVVPRGSNALVRKIKDTTKIPVLGHADGICSIYLDEDADLIKAKRISLDAKTNYPAGCNAMETLLINPKFSKWWEVLENLTLEGGVTIHATKDLKTAYFDKLNELGKLTEAIQCKTVDADEEQDFDKEFLSLDLAAKFVTSTESAIQHINTHSSRHTDAIVTENKANAEKFMKGVDSSGVYWNASTRFADGFRYGFGAEVGISTSKIHARGPVGLDGLVSYQYQIRGDGQVASDYLGAGGNKAFVHKDLDIKTVTLZ
protein production: not failed

MTLISRILGLVRDVVIASLLGAGAMSDVFLFANRIPNFLRRLFAEGAFSKAFVPVLAEYNADNDLDKTREFIAKVSGTLGLLVTVVTLVAMLISPIIAALFGTGWFIDWFNDGPDAQKFTQASLLLKITFPYLWFITFIALSGAVLNTIGKFGVMAFSPVLLNVAMISMALFGADYFEQPDIALAWGIFLGGLLQFLFQIPFMIKERLLVKPKWAWKDEGVTKVRRLMIPALFGVSVTQINLLLNQVIASFLVTGSITWLYYSDRLIEFPLGLFGIAISTVVLPNLSRITKKKALNEEQRAIAFKQTLDWGVRMVVALGIPAMVGIAILAQPLIMTIFMRGKFVLADVIATSHALWIMCLGLNSYMLISVLANGFYARQNTKTPVKIGIIATIANICFGVLAIPFGYLGLAMASALSAAVNASLLYYNLVKEQAYCLSKKTVIFILKVAISACAMGVLVSYFSPTLTDWYAMKMWLKVHWLVWLISLAAISYFAVLMVLGIRKQDFRA
protein production: failed

MSRVPEPSVFLVVDEAKRKARERGVGLIDLSIGSTDLPPPEAPLKALAEALNDPTTYGYCLKSCTLPFLEEAARWYEGRYGVGLDPRREALALIGSQEGLAHLLLALTEPEDLLLLPEVAYPSYFGAARVASLRTFLIPLREDGLADLKAVPEGVWREAKVLLLNYPNNPTGAVADWGYFEEALGLARKHGLWLIHDNPYVDQVYEGEAPSPLALPGAKERVVELFSLSKSYNLAGFRLGFALGSEEALARLERVKGVIDFNQYAGVLRMGVEALKTPKEVVRGYARVYRERALGMAEALKGVLSLLPPRATMYLWGRLPEGVDDLEFGLRLVERGVALAPGRGFGPGGKGFVRIALVRPLEELLEAAKRIREALD
protein production: not failed

MDYVVSYLSIEFGLCFILFFVLYWGLGFSLRLQNVLLLVASYAILASFSLNFLYILLGYTALVYLLGLLSQRYPGRGWVNGLMLLLVLGAFYLFKYQDFFTSTVQNAFAQFGVEVSLPLLEVLLPVGLSFYAFHSVSYLVSINRRELTPGSPFDLALYLAFFPSLIAGPVNRAIPMLAQINPPQLRQVLEPQRALGLIAVAVVKLFFLSSWLANEWVDPVFDSPVAYSAEQILRAVYGYSFLIYFNFSGYTDLVTGIALLLGFRLPQNFNYPYAARNLKEFWGRWHISLSTFIRDYVYIPLGGNRGPVWRGNLNMLLAMLISGLWHGASANFIIWGALHGIGLALYKLCSPLLARGPSWIGADLMARLLTFHYVAFAWIFFRCATLSDAMDMLKGLGELSLGGLLGGGASLLGCLLFVAFYPRIVALLRRLFDAATGLPWLFYPVPLGLFICVVIFASPSGVPGFIYASF
protein production: failed

MNLRGILPFAHDTLRKVVRSGDYVVDATCGNGHDTLLLAELVGINGHVLGFDIQQLAIDATNTRLENAGVSSQVELVCASHARIPEYTSKPVRAAIFNLGYLPGGDKEITTTADSTLESIGHLMELLEVGGVIILVIYHGHPAGKQEKDAVMTFCEAIPQQDFHVLSYNFINQKNDAPFVIIIEKRKPRQSLEHHHHHH
protein production: not failed

MTTSIGGLFFNLVALSLLSAIGLGVVHGITYSKWMPLLGNNATFGIHKFSIQVNVKECIKGCMLAILTMVPFIIVIGIMIAPVFQQLMMMTMLGGSDAGSEFVLQYYPQIMASYFLYFVAILVFASYLYVTLRNLFLNNLTLANGTIRFHSSVTAIGMLLRMLAVLMGSSITCGLAYPWLKMWMVSWIANNTHVQGDLDSLELTNDDKPQDSGSLMWISRGIMPYVPFI
protein production: failed

MLRRSFSSYLRQGLLLAFLAAFSALWLAQAHAERRAAIVVGNSEYPFAPLTNPRNDAKLIANTLTELKFDVLLFYDVKKSAEKDLNDAIRAHLIGADMAVFYYAGHALQYNGQNLLLPVDTRISSAKEVAADAMRLNDLIDIVKNDPVGVKVFILDACRNNPVAKEKGLQQGLAYTEAGSGQVLVAFATSAGEVAYDGTGINSPYSSALANALLMPNLDVYDTFRTVRGDVRQATGGSQIPWITGSIETKFVFRQGDAGKQVAQAEHAAEADGGLTIDEVLWSFISDSQNPEDFERFVKVFPNSRYAAEATEKSRFKVAALTKRGLYVNGNLVSSSIAATAPIGASDKALSEEFVFQQAGERAVSETFRIWPSNLPDTQRGMRTMVTDCDLYAADPNDPQRAVPGVTNGLVNVRDALRACAFALAADINNPRLQFQFGRVLEIARRYSWAEHFYELAGNQQYSAALINMGYMARVGMGREIDYGRAFDPYVRAAALGNLRARTDIGSAYIAGQGVPKLPEEGVLWYRLAASSGWANAITALGDAYRLGTGVKQDYVQAASLYSAAADTGQIDAMANLGQAYLAGEGVKKDVPRGLELLQRANDMGNRYAPYFMAQLYLKGDRKLPADPRRALALLELSANRGNEYAYVRLAWGHRDGVFTGGKPDLRRAYFDASLAARLRADQGEQAKAEIAKKIDPATRKEIDGEVELYIKQNGP
protein production: failed
